Experimental data: patent publication US7141434B2, “Methods of identifying compounds that modulate IL-4 receptor-mediated IgE synthesis utilizing an adenosine kinase” (Rigel Pharmaceuticals, Inc., priority 2002, dated 2006)

How the values were obtained:
[1] = biological target: T1, human AK (hAK) (Homo sapiens, UniProt P55263); experiment: β-galactosidase yeast two hybrid (YTH) interaction assay; type: binding; conditions: qualitative
T1 construct: expressed in transfected cells; prey cDNA from the A5T4 reporter cell line (derived from BJAB B-cells)
T1 sequence (P55263 whole entry): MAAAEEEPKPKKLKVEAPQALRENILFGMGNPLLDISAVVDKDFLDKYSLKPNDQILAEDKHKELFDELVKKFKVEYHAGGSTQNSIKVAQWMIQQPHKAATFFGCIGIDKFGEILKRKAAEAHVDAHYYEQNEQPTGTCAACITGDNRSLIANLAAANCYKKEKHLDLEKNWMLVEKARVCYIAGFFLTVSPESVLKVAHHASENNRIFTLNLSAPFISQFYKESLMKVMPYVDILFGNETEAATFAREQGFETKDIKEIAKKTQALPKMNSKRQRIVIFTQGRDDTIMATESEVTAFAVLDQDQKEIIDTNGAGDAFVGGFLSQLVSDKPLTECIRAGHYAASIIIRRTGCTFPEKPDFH
Procedure: Potential binding partners for peptide AR02E8 wt were identified in a β-galactosidase yeast two-hybrid (YTH) assay using peptide AR02E8 wt as bait and a cDNA library constructed from the A5T4 reporter cell line as prey. Binding was assessed by β-galactosidase quantification using BetaFluor (Novagen) as a substrate. A negative interaction control (no cDNA fused downstream of the GAL4 activation domain sequence) was also run. A general outline of the YTH assay is illustrated in FIG. 5A. Following clustering, filtering to remove non-specific bait hits (e.g., GFP and BFP), singletons and clusters recognized by 10 or more cDNA baits (based upon historical YTH assays), and prioritization, 45 prey clones were identified as hits.
Potential targets identified in the YTH assay were reconfirmed as generally outlined in FIG. 6. The cDNA clones identified as hits in the YTH assay were purified and rescreened for interaction with the AR02E8 wt peptide in a YTH assay. The hit clones were also screened in a control assay for interaction with the BFP using a vector (pGBKT7) that contained only the BFP and not the AR02E8 peptide. At this stage, 27 putative target clones remained.
The interaction of AR02E8 wt peptide and its mutants with the clones identified as potential targets for the peptide AR02E8 wt was then quantified in a β-galactosidase YTH assay. The YTH assay was performed in the manner described above. A general outline of this YTH assay is illustrated in FIG. 5B. For each clone tested, an interaction profile was developed by comparing the β-galactosidase activity of each mutant to that of the wild type peptide as described above.
The interaction of these IOF, ROF and LOF mutants with different polypeptides encoded by the putative target clones were quantified using the YTH assay described above. […]

[2] = system: ST486 endogenous α promoter; experiment: TAQMAN assay of endogenous germline α promoter transcription in ST486 cells; type: cell-based; conditions: ST486 cells stimulated with TGF-β 40 ng/ml; average of 3 values; p=0.1120
Procedure: The assay was similar to that described in the immediately preceding section, except that ST486 cells (ATCC # CRL-1647) engineered to express the tetracycline-regulated transactivator were infected and the infected cells were stimulated with TGF-β (40 ng/ml; Peprotech). The primers and probe, which are specific for the transcription product driven by the ST486 endogenous α promoter, were as follows (the probe was labeled at the 5′-end with Fam and at the 3′-end with Tamra): […]

[3] = system: IL-4 induced germline ε transcription (ε promoter reporter in A5T4 cells); experiment: Re-infection of naive A5T4 reporter cells with BFP-peptide fusion (GFP reporter ratio); type: cell-based, human; conditions: based on reporter ratio; % change calculated after subtracting 1.0 from the ratios
Procedure: The ability of peptide AR02E8 wt to inhibit germline ε transcription was confirmed in naive cells. Briefly, Phoenix cells were transfected with a retroviral vector encoding a BFP-AR02E8 wt peptide fusion as described in WO 99/58663 and WO 97/27213. Naïve A5T4 cells were infected with the resultant virions and grown for 3 days. The infected cells were stimulated with IL-4 (60 U/mL) and, after 3 days, the cells were assessed by FACS for BFP and GFP. […] The BFP fluorescence data corresponding to the BFP^+ and BFP^− populations are provided in Panel A. The GFP fluorescence data corresponding to the BFP^+ and BFP-populations are presented in Panel B. The reporter ratio for this purpose is determined as the geometric mean of the GFP fluorescence of the BFP^− population divided by the geometric mean of the GFP fluorescence of the BFP^+ population. The reporter ratio for the AR02E8 in this re-infection assay was 2.93. […]
TABLE 2 depicts the amino acid sequences (the dual alanine/glycine mutations are underlined) of the mutants tested and the measured reporter ratios when screening in the A5T4 reporter line.

Sequence | binding to human AK in yeast two hybrid interaction assay [1] | endogenous α inhibition ratio [2] | functional category as compared to the wild type peptide [3]
DTMQVQCGAGRSGYVVAFWDVGP (peptide encoded by synthetic oligomer) [AR02E8VC, dual alanine/glycine mutant of AR02E8 wt] | found to bind human AK (hAK) |  | 
DTMQVQCGVCRSGYVVAFWDVGP (peptide encoded by synthetic oligomer) [AR02E8 wt, 23-residue peptide from a random retroviral library, expressed as BFP-peptide fusion] | found to bind human AK (hAK) | 0.79 | 
DTMQVQCGVCRSGAGVAFWDVGP (peptide encoded by synthetic oligomer) [AR02E8YV, dual alanine/glycine mutant of AR02E8 wt, loss of function] |  |  | LOF (Cells expressing a loss of function (LOF) mutant have a reporter ratio of <1.11)
DTMQVQCGVCAGGYVVAFWDVGP (peptide encoded by synthetic oligomer) [AR02E8RS, dual alanine/glycine mutant of AR02E8 wt] | found to bind human AK (hAK) |  | 
